Where “and” joins values, the source holds several entries; their conditions need not be identical. Identical values can stand only once.
What was measured:
[1] = molecular target: RSV-F of RSV subtype A lab strains; experiment: cell-based or functional assay
[2] = molecular target: RSV-F of RSV subtype B lab strains; experiment: cell-based or functional assay

B1: H1H3592P3 (antibody, V domains shown)
VH: EVQLVESGGDLVQPGRSLRLSCVASGFTFDDYAMHWVRQAPGKGLEWVSGVSWSGSTVGYADSVKGRFTVSRDNAQKSLYLQMNSLRAEDTALYYCVKDAYKFNYYYYGLDVWGQGTTVTVSS
VL: EIVMTQSPATLSVSPGERATLSCRASQTILSNLAWYLQKPGQAPRLLIYGASTRATGLPARFSGSGSGTEFTLTISSLQSEDFAVYYCQQYNNWPLTFGGGTKVEIK
[1]
  neutralization potency on HEp-2 cells, fold against control I: 15 fold and 17 fold
[2]
  neutralization potency on HEp-2 cells, fold against control I: 2 fold and 5 fold

— US20140271653A1
